{
  "source": "patent US20240325555A1",
  "key": {"rat LIV-1 (rat)": {"target": "T1, rat LIV-1 (rat) (UniProt Q4V887)", "T1 sequence (looked up)": "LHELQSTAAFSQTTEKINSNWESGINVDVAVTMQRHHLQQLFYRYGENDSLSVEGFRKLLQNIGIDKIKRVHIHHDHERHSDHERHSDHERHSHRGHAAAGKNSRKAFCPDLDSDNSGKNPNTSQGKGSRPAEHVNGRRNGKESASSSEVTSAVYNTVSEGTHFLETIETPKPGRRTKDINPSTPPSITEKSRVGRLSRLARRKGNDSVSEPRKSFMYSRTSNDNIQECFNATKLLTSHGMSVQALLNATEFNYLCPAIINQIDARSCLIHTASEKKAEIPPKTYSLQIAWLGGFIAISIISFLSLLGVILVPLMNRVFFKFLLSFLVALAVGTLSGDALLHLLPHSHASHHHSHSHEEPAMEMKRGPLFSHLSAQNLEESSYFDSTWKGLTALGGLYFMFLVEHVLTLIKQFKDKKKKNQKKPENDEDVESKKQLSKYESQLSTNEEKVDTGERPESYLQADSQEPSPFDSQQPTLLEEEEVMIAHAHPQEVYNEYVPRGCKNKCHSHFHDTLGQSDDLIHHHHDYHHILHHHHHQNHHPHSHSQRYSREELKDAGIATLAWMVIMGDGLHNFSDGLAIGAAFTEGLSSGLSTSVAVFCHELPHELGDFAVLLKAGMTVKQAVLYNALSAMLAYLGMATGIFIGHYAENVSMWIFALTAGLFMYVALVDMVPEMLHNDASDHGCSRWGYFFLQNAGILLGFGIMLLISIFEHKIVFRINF", "assay": "FACS, HEK293/Rat_LIV-1 cells"}, "mouse LIV-1 (mouse)": {"target": "T2, mouse LIV-1 (mouse) (UniProt Q8C145)", "T2 sequence (looked up)": "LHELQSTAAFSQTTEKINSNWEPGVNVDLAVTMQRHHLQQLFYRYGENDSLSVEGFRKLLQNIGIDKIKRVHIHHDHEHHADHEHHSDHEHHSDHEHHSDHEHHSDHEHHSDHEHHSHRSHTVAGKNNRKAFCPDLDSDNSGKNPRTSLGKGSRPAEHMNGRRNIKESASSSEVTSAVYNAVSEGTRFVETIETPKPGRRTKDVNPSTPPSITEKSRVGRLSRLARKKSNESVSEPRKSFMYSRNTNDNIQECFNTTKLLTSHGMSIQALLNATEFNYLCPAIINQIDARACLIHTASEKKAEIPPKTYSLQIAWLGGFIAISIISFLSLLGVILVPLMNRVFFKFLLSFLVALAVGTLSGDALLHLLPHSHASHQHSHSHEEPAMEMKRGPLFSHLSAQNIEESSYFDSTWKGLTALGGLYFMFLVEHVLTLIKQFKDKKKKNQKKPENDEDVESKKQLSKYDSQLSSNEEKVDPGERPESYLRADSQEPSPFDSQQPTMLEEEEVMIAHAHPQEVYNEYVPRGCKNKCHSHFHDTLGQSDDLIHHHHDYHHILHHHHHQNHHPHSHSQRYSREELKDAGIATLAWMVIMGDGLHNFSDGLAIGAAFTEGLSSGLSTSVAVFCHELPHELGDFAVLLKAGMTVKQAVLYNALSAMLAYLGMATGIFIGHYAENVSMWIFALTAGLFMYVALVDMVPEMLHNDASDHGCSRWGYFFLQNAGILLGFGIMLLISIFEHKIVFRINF", "assay": "FACS, HEK293/Mouse_LIV-1 cells"}},
  "data": [
    {"substance": "hIgG1 Isotype (antibody)", "values": [
      {"measurement": "Top (MFI)", "setting": "rat LIV-1 (rat)", "value": 119, "unit": "MFI"},
      {"measurement": "Top (MFI)", "setting": "mouse LIV-1 (mouse)", "value": 114, "unit": "MFI"}
    ]}
  ]
}
